What was measured:
[1] = molecular target: thrombin; assay: SPR; BIAcore T100; thrombin (2000 RU) amine-coupled to a CM5 chip; RGD-hirudin or mutants injected at 30 uL/min in 10 mM HEPES, 150 mM NaCl, 0.005% Surfactant P20, pH 7.5; 1:1 Langmuir fit, KD calculated from ka and kd
[2] = molecular target: thrombin

Substance	Kd [1] [nM]	koff [1] [s⁻¹]	kon [1] [M⁻¹ s⁻¹]	anti-thrombin specific activity (Titration Testing Method, plasma clotting) [2] [ATU/mg]
RGD-hirudin D55A	1030	0.000383	371	12000
RGD-hirudin E57A	2410	0.000374	155	11000
RGD-hirudin I59A	19000	0.00139	73	9000
RGD-hirudin Q53A	570	3.37e-05	59.2	14000
RGD-hirudin S50A	35	3.94e-05	1120	16000
RGD-hirudin Y3A		0.00288		4000
recombinant RGD-hirudin	15.5	2.73e-05	1770	18000
